Our source for the amyloid nucleation score values is the supplement of paper PMC12042874.

± gives the uncertainty stated by the source.

A short description of the data set: amyloid nucleation score (Sup35N fusion, yeast selection) (log enrichment); library NNK3; higher = more nucleation; inactive = no reads after selection. In short, it runs like this: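 Nucleation score is defined as the DiMSum log enrichment of output over input reads, with centring on the mode score of non-aggregating sequences. A minimum of 100 input reads was required for each sequence. Reads came from Illumina sequencing of plasmid inserts from psi-negative yeast expressing Sup35N fused to peptides of 20 random codons, induced with 100 μM copper sulfate for 24 hours and grown 7 days at 30°C on medium lacking adenine and uracil.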
As to LLNYFRLMCYRSFL, the amyloid nucleation score entry was “inactive”.
For LLRRNINMFSIQFFSRVTWL the value was -0.141 ± 0.96.
For LLRTL the value was “inactive”.
Substance LLSADFSFSSVEMKLARLGV yielded an amyloid nucleation score of 1.22 ± 0.18.
Turning to LLSAMYNHPADMIAKLGKGG, the amyloid nucleation score entry was “inactive”.
For LLSDICFCYYAREIRNSGCS the value was “inactive”.
LLSIAVVDVPSRLSRCITLL: the amyloid nucleation score entry was “inactive”.
With LLTMHWVREWSDGLYCKGKL, the amyloid nucleation score result is “inactive”.
Regarding LLTVEVPLWKIFDAML, the amyloid nucleation score result was “inactive”.
The result for LLVCSWC reads 2.1 ± 0.093.
With LLVSFLVVLSWAVRFSRMGD, the amyloid nucleation score result was “inactive”.
For LLVVYIFTGPLTVPHVWTIE the value was “inactive”; for LMANVGPAWLQSFAIRGTSH, “inactive”.
As to LMCDWGVY, the amyloid nucleation score was -0.175 ± 0.85.
The result for LMDFLKYAMFRGTMVCW reads “inactive”; that for LMHGPMLVFRFVASNSCRER, “inactive”.
The result for LMLRVHGMW reads “inactive”; that for LMNTYL, 1.71 ± 0.099.
The result for LMPSDFISSYNSLYDGCLGG reads “inactive”; that for LMSNHCGKYWRHFSWIMTVF, “inactive”.
With LMSSGVGLPFSDTSAWLIVW, the amyloid nucleation score result is “inactive”.
For LMSTYVTFFRSCKPSSCVFV the value was “inactive”; for LMVASISNVQRRIVRVKLCD, “inactive”.
The result for LMWTGF reads “inactive”; that for LMYAVLGTQTVSLSAFKSR, -0.3 ± 1.1.
The result for LNDLCKMPVSLFIHGLCLMT reads “inactive”.
As for LNFDNRNFFGDMSAESATPF, the amyloid nucleation score result was “inactive”.
Consider LNFNSWNGLKYR, for which the amyloid nucleation score result was “inactive”.
For LNGMFG the value was “inactive”; for LNHGVCIFYDQFANLELPPR, 2.09 ± 0.067; for LNIRGSFCFYGSWIVADFHM, 0.336 ± 0.38.
On to LNKVIRCEAYRCKTMN, for which the amyloid nucleation score result was “inactive”.
For LNLCTRLVFNPVTFQGNTFK the value was “inactive”; for LNMCLSLVSVLRAVSVYLWT, “inactive”.
For LNPLMFKMRFLMEYNLAWGV the value was 0.891 ± 0.28; for LNVCVMEKNSNLRWSYWDLC, 1.09 ± 0.15; for LNVLAPFGWLARFIILAIP, “inactive”.
For LNYVCCCIQSPPEFNIS the value was 3.36 ± 0.07; for LPFIRV, 0.007 ± 0.27.
With LPMQYKLLSVFVADFFTIFV, the amyloid nucleation score is -1.07 ± 1.7.
For LPVPGTPLKKAVGGIIRGCG the value was “inactive”; for LQHWPRTFWMGSRYAYLFSL, “inactive”.
The result for LQRIGIYMTTFCENRCPDAE reads “inactive”.
For LQRVFLENRTSVYSVTG the value was “inactive”; for LQSGDRIVTDSYVRAYTMHV, “inactive”.
For the substance LQTFDYQRVWNKCLSEFSLE, the amyloid nucleation score entry is “inactive”.
The result for LQVARIMVSWIDQCGENRTD reads “inactive”.
For the substance LQVSIRLTLTNHVDRHTMPM, the amyloid nucleation score is 1.36 ± 0.15.
The result for LQYNISVWELC reads “inactive”; that for LRAFMYLFTYKTWIRTSNGV, “inactive”; that for LRAICKSCGVASGYVAAPRA, -0.478 ± 0.52.
For LRASTPYHPMLFELGKLALI the value was “inactive”; for LRDTGWLIGLMCCSIQIGSG, 2.13 ± 0.069.
Consider LRGARCYKSNRVIGVLCGSV, for which the amyloid nucleation score entry is “inactive”.
The result for LRHWRMRLSIGN reads “inactive”; that for LRKFFHLLQIIMERNINRSI, “inactive”; that for LRLMAGNGSSKVGPIKMPWY, “inactive”.
In turn, LRLQRDPCSNSLSVLSCIFC displayed an amyloid nucleation score of 2.63 ± 0.06.
Regarding LRLVTMSYWPRYLLRRKCIR, the amyloid nucleation score entry was “inactive”.
For LRNLNK the value was “inactive”; for LRPCRDRRFLVPDDYSSVFF, “inactive”.
The result for LRPNLQSDVPRRYTMCGTHA reads “inactive”; that for LRSDMLVVPRIFFACFWSIK, “inactive”; that for LRTWLL, “inactive”.
For LRVLAP the value was 0.815 ± 0.16.
Turning to LRVRLCSGSSRIWLEVLVRR, the amyloid nucleation score entry was “inactive”.
For LRVYLLAWL the value was 0.781 ± 0.16.
For LRWLDVLDHTLDIYVSNESI the value was “inactive”; for LRWYPVDMI, “inactive”.
The result for LSDAR reads “inactive”; that for LSDFL, “inactive”.
LSDGGAFLLIRHVFVWGFVT: the amyloid nucleation score entry was “inactive”.
The result for LSEIGIPVAVSFKPADSLGL reads “inactive”; that for LSFNTVDSPGRIYFRIWYGV, 1.07 ± 0.14; that for LSGLFARRNQWWKYGLRRN, “inactive”.
In the case of LSGRIAKTKRLIVHRLCEEG, the amyloid nucleation score result is “inactive”.
The result for LSGRVERVW reads “inactive”.
Consider LSHYVMVTYRAKGRMAGRIW, for which the amyloid nucleation score result is “inactive”.
The result for LSIDEWRFSSANSTALECHV reads “inactive”.
The result for LSINTQTS reads “inactive”.
For LSKHS the value was “inactive”; for LSKVVLLVFKGTP, “inactive”.
Regarding LSLNSEVFGLSSTSNTVPFD, the amyloid nucleation score entry was “inactive”.
For LSMSYLMSVLLCDLQKVYNT the value was “inactive”.
In the case of LSNPTSRVLSYRTNM, the amyloid nucleation score entry was “inactive”.
Take LSNVVGRATGKRTTSYHEDA: the amyloid nucleation score is 0.43 ± 0.17.
For LSPQSIVSYYTLWTFGFTAC the value was -0.28 ± 0.77; for LSQVFLVMFKF, “inactive”.
Take LSRGFYAS: the amyloid nucleation score result is “inactive”.
For LSRLFLSRVGHVIYTKSSVD the value was “inactive”; for LSSETWRRLQIVSIHYGLVV, “inactive”.
For LSSHS the value was “inactive”; for LSVCVIEHAWVFCRTPVQAF, “inactive”; for LSVMLQ, 0.988 ± 0.19.
The result for LSVYGLQGHSNHNRMDGISW reads 0.718 ± 0.2.
LSWIASSGKGWSTTMCISTM: the amyloid nucleation score result was “inactive”.
For LSWSGNSSAYKSIIR the value was “inactive”; for LSYYVFRYTNTHWSPCFYIE, “inactive”.
The result for LTAYGNVNCV reads “inactive”; that for LTDSY, “inactive”; that for LTGCRL, “inactive”.
On to LTIAIWVMYKDQYFCLWHLL, for which the amyloid nucleation score entry was “inactive”.
For LTIINRFEFRQKNINGTYRK the value was 2.73 ± 0.068; for LTSLLTARKNCTNFHN, “inactive”.
For LTVLSCTAQVDHGIAYCLEV the value was “inactive”; for LTWYWKNGCSLLPLIGLSGN, “inactive”.
For LVAGSTRTSLLVLRALGAWL the value was “inactive”; for LVDHLFDMITMHDGPCQLHQ, “inactive”.
LVDLGFMRRCSQSRLQDFCF registered an amyloid nucleation score of 0.832 ± 0.24.
The result for LVEIIHVSLVFLP reads “inactive”.
For LVEMKALRTD the value was “inactive”; for LVFIWAKTHRHQLFVTEAEL, “inactive”.
For LVGFRTGTALLDQMAL the value was “inactive”; for LVGTRRLSSYRHRFKWITIG, “inactive”.
Regarding LVHDLDLCSPGVSYQKSRMS, the amyloid nucleation score result is “inactive”.
Consider LVIWHIVKTAVMWTARTERL, for which the amyloid nucleation score was -0.409 ± 1.5.
LVMNNRYLYSRFLLLV: the amyloid nucleation score is -0.619 ± 0.73.
Consider LVPVMTFNWPKPSNGVSAVA, for which the amyloid nucleation score is -0.413 ± 1.
For LVRRHSFSGYRRDT the value was “inactive”.
The result for LVSCK reads “inactive”; that for LVSSMMIHVYFNEVLVFMIC, 0.796 ± 0.1.
As to LVTFFSGRYGHWWLDNCWRQ, the amyloid nucleation score result was “inactive”.
For LVVPGYNLL the value was “inactive”; for LVVRNVEVPIHR, “inactive”; for LVVYSVGFWHR, -0.143 ± 0.48.
For LVWHLHSSSCRARCRIGGGK the value was “inactive”; for LVYKLRGRCYERLYKWRLCD, “inactive”.
For the substance LVYNATYCSSMHHSGS, the amyloid nucleation score result is “inactive”.
For LVYPSFLLFKSIASHDSTGD the value was “inactive”; for LWEDNVWVLKR, -0.1 ± 0.19; for LWGYDNDVNCCTMALNVHGV, 0.503 ± 0.3.
For the substance LWHKMSDMV, the amyloid nucleation score entry was “inactive”.
